Results on 15 molecules are retold here after patent publication US20240317857A1 (AMPSOURCE BIOPHARMA SHANGHAI, published 2024).

Test [1] concerns the target T1, human CD3E (purchased from Acro Biosystems) (human, UniProt P07766 23-126).
T1 construct: also called human CD3 antigen; human CD3E molecules
As to the kind of experiment: ELISA, plate coated with human CD3E. How it is done: A microtiter plate was coated with 100 μL of 0.1 μg/mL human CD3E (purchased from Acro Biosystems) overnight at room temperature. The coating solution was discarded, and the wells were blocked with skimmed milk dissolved in phosphate buffered saline (PBS) for 0.5 hours and washed with PBS containing 0.05% Tween-20 (PBST). Then the purified murine antibodies AP191, AP591 and AP831 against human CD3 were added with 50 μL per well and incubated for 1 h at room temperature. The wells were washed with 0.05% PBST. Then 50 μL of HRP-labeled goat anti-mouse IgG polyclonal antibody (purchased from Jackson Laboratory) was added per well as the detected antibody and incubated for 1 h at 37° C. The wells were washed three times with 0.05% PBST, added with TMB (100 μL/well) and developed at room temperature for 5 min. 0.2 M H₂SO₄ was added to terminate the reaction, 50 μL/well. Absorption values were read by a microplate reader at double wavelengths 450 nm/620 nm. Plotting was performed by software GraphPad Prism 6 with OD 450 nm/620 nm as the Y-axis and an antibody concentration as the X-axis.

For test [2], the target named is T2, human CD3 on human T cells (human, UniProt P07766 23-207).
T2 construct: whole, on cells; also called human primary T cells; NFAT-Jurkat cells
As to the kind of experiment: flow cytometry on human primary T cells.

Test [3] addresses T3, His-labeled human CD3E (human, UniProt P07766 23-126).
T3 construct: also called human CD3E antigen; antigen CD3E; not shown: His label
As to the kind of experiment: BLI (Octet), His-labeled human CD3E on Ni-NTA sensors, antibody 3.125-100 nM. The method, then:
(§1) The binding affinity constants of the purified murine monoclonal antibodies to antigen CD3E were determined by […] (BLI) with the ForteBio Octet RED&QK system from PALL Corporation. Concentration gradients of a multichannel parallel quantitative analysis were set to 3.125, 6.25, 12.5, 25, 50 and 100 nM, and His-labeled human CD3E (10 μg/mL) was coupled to Ni-NTA sensors.

The target in test [4] is T3, His-labeled human CD3E. As to the kind of experiment: BLI (Octet), method of Example 3: His-labeled human CD3E on Ni-NTA sensors. The method, then:
as §1
For example, the experimental method for determining the kinetic constants and affinity equilibrium dissociation constants of the humanized antibodies was as described in Example 3.

T3 sequence (P07766 23-126): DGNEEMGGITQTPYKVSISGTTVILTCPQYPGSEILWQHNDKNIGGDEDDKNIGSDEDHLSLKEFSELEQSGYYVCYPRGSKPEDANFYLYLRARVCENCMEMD
T2 sequence (P07766 23-207): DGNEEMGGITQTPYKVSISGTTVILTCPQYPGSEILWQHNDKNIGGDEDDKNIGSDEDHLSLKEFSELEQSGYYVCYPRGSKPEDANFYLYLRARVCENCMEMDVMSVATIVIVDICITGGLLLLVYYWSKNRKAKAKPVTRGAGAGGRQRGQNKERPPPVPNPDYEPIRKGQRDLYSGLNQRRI
T1 sequence (P07766 23-126 limits assumed): as the sequence (P07766 23-126) above

B1: murine monoclonal antibody AP591 (antibody, mouse IgG1, V domains shown)
VH: EVQLVESGGGLVQPKGSLKLSCAASGFTFNTYAMNWVRQAPGKGLEWVGRIRSKINNYATYYADSVRDRFTISRDDSQSMLYLQMSNLKTEDTAMYYCVRHDNFYGSTYSWFADWGQGTLVTVSA
VL: AVVTQESALTTSPGETVTLTCRSSTGVVTTSNYANWVQEKPDHLFTGLIGATNYRVPGVPARFSGSLIGDKAALTITGAQTEDEAIYFCVLWYSNHWVFGGGTKLTVL
Regarding B1, in test [1], the 50% effective concentration (EC50) came out at 0.0283 nM. Moreover, the EC50 in test [2] turned out to be 8.91 nM. Further, in the test with His-labeled human CD3E [3], binding was characterised by a dissociation constant (Kd) of 0.0194 nM, the koff amounted to 1.04e-05 s⁻¹ and the kon stood at 539000 M⁻¹ s⁻¹.

B2: humanized antibody AB616 (antibody, V domains shown)
VH: EVQLLESGGGLVQPGGSLKLSCAASGFTFDTYAMNWVRQAPGKGLEWVGRIRSKINNYATYYADSVKDRFTISRDDSKNTAYLQMNNLKTEDTAMYYCVRHDNFYGSTYSWFADWGQGTLVTVSS
VL: ELVVTQEPSLTVSPGGTVTLTCRSSTGVVTTSNYANWVQEKPDHLFTGLIGATNYRAPGTPARFSGSLLGGKAALTLSGVQPEDEAIYFCVLWYSNHWVFGGGTKLTVL
In the test with His-labeled human CD3E [4], B2 displayed an equilibrium dissociation constant (Kd) of 0.116 nM, an off-rate constant (koff) of 2.97e-05 s⁻¹ and an on-rate constant (kon) of 256000 M⁻¹ s⁻¹.

B3: humanized antibody AB618 (antibody, V domains shown)
VH: EVQLLESGGGLVQPGGSLKLSCAASGFTFNTYAMNWVRQAPGKGLEWVGRIRSKINNYATYYADSVKDRFTISRDDSKNTAYLQMNNLKTEDTAMYYCVRHDNFYGSTYSWFADWGQGTLVTVSS
VL: ELVVTQEPSLTVSPGGTVTLTCRSSTGVVTTSNYANWVQEKPDHLFTGLIGDTNYRAPGTPARFSGSLLGGKAALTLSGVQPEDEAIYFCVLWYSNHWVFGGGTKLTVL
B3: in the test with His-labeled human CD3E [4], the equilibrium dissociation constant (Kd) was less than 0.001 nM, the koff is less than 1e-07 s⁻¹ and the kon was 51200 M⁻¹ s⁻¹.

B4: humanized antibody AB619 (antibody, V domains shown)
VH: EVQLLESGGGLVQPGGSLKLSCAASGFTFNTYAMNWVRQAPGKGLEWVGRIRSKINNYATYYADSVKDRFTISRDDSKNTAYLQMNNLKTEDTAMYYCVRHDNFYGSTYSWFADWGQGTLVTVSS
VL: ELVVTQEPSLTVSPGGTVTLTCRSSTGVVTTSNYANWVQEKPDHLFTGLIGATDYRAPGTPARFSGSLLGGKAALTLSGVQPEDEAIYFCVLWYSNHWVFGGGTKLTVL
In the test with His-labeled human CD3E [4], B4 showed a Kd of 0.123 nM, an off-rate constant (koff) of 3.41e-05 s⁻¹ and an on-rate (kon) of 276000 M⁻¹ s⁻¹.

B5: humanized antibody AB622 (antibody, V domains shown)
VH: EVQLLESGGGLVQPGGSLKLSCAASGFTFNTYAMNWVRQAPGKGLEWVGRIRSKINNYATYYADSVKDRFTISRDDSKNTAYLQMNNLKTEDTAMYYCVRHDNFYGSTYSWFADWGQGTLVTVSS
VL: ELVVTQEPSLTVSPGGTVTLTCRSSTGVVTTSNYANWVQEKPDHLFTGLIGATNHRAPGTPARFSGSLLGGKAALTLSGVQPEDEAIYFCVLWYSNHWVFGGGTKLTVL
In the test with His-labeled human CD3E [4], B5 gave a Kd of 1.45 nM, a koff of 0.000391 s⁻¹ and a kon of 270000 M⁻¹ s⁻¹.

B6: humanized antibody AB620 (antibody, V domains shown)
VH: EVQLLESGGGLVQPGGSLKLSCAASGFTFDTYAMNWVRQAPGKGLEWVGRIRSKINNYATYYADSVKDRFTISRDDSKNTAYLQMNNLKTEDTAMYYCVRHDNFYGSTYSWFADWGQGTLVTVSS
VL: ELVVTQEPSLTVSPGGTVTLTCRSSTGVVTTSNYANWVQEKPDHLFTGLIGATDYRAPGTPARFSGSLLGGKAALTLSGVQPEDEAIYFCVLWYSNHWVFGGGTKLTVL
As for B6, in the test with His-labeled human CD3E [4], binding was put at a Kd of 0.169 nM, the koff came to 4.26e-05 s⁻¹ and the kon was 253000 M⁻¹ s⁻¹.

B7: humanized antibody AB615 (antibody, V domains shown)
VH: EVQLLESGGGLVQPGGSLKLSCAASGFDFNTYAMNWVRQAPGKGLEWVGRIRSKINNYATYYADSVKDRFTISRDDSKNTAYLQMNNLKTEDTAMYYCVRHDNFYGSTYSWFADWGQGTLVTVSS
VL: ELVVTQEPSLTVSPGGTVTLTCRSSTGVVTTSNYANWVQEKPDHLFTGLIGATNYRAPGTPARFSGSLLGGKAALTLSGVQPEDEAIYFCVLWYSNHWVFGGGTKLTVL
Regarding B7, in the test with His-labeled human CD3E [4], binding was characterised by a dissociation constant (Kd) of 0.668 nM, the off-rate (koff) came out at 0.00017 s⁻¹ and the kon was 254000 M⁻¹ s⁻¹.

B8: humanized antibody AB627 (antibody, V domains shown)
VH: EVQLLESGGGLVQPGGSLKLSCAASGFTFNTYAMNWVRQAPGKGLEWVGRIRSKINNYATYYADSVKDRFTISRDDSKNTAYLQMNNLKTEDTAMYYCVRHDNFYGSTYSWHADWGQGTLVTVSS
VL: ELVVTQEPSLTVSPGGTVTLTCRSSTGVVTTSNYANWVQEKPDHLFTGLIGATNYRAPGTPARFSGSLLGGKAALTLSGVQPEDEAIYFCVLWYSNHWVFGGGTKLTVL
In the test with His-labeled human CD3E [4], B8 showed a Kd not above 0.00264 nM, a koff of less than 1e-07 s⁻¹ and a kon of 7300 M⁻¹ s⁻¹.

B9: humanized antibody AB625 (antibody, V domains shown)
VH: EVQLLESGGGLVQPGGSLKLSCAASGFTFNTYAMNWVRQAPGKGLEWVGRIRSKINNYATYYADSVKDRFTISRDDSKNTAYLQMNNLKTEDTAMYYCVRHDNFYGSTHSWFADWGQGTLVTVSS
VL: ELVVTQEPSLTVSPGGTVTLTCRSSTGVVTTSNYANWVQEKPDHLFTGLIGATNYRAPGTPARFSGSLLGGKAALTLSGVQPEDEAIYFCVLWYSNHWVFGGGTKLTVL
In the test with His-labeled human CD3E [4], B9 displayed a Kd of 1.8 nM, an off-rate constant (koff) of 0.000318 s⁻¹ and a kon of 177000 M⁻¹ s⁻¹.

B10: humanized antibody AB623 (antibody, V domains shown)
VH: EVQLLESGGGLVQPGGSLKLSCAASGFTFNTYAMNWVRQAPGKGLEWVGRIRSKINNYATYYADSVKDRFTISRDDSKNTAYLQMNNLKTEDTAMYYCVRHDNHYGSTYSWFADWGQGTLVTVSS
VL: ELVVTQEPSLTVSPGGTVTLTCRSSTGVVTTSNYANWVQEKPDHLFTGLIGATNYRAPGTPARFSGSLLGGKAALTLSGVQPEDEAIYFCVLWYSNHWVFGGGTKLTVL
In the test with His-labeled human CD3E [4], B10 registered a Kd of 23.3 nM, an off-rate constant (koff) of 0.00119 s⁻¹ and a kon of 51200 M⁻¹ s⁻¹.

B11: humanized antibody AB624 (antibody, V domains shown)
VH: EVQLLESGGGLVQPGGSLKLSCAASGFTFNTYAMNWVRQAPGKGLEWVGRIRSKINNYATYYADSVKDRFTISRDDSKNTAYLQMNNLKTEDTAMYYCVRHDNFHGSTYSWFADWGQGTLVTVSS
VL: ELVVTQEPSLTVSPGGTVTLTCRSSTGVVTTSNYANWVQEKPDHLFTGLIGATNYRAPGTPARFSGSLLGGKAALTLSGVQPEDEAIYFCVLWYSNHWVFGGGTKLTVL
As to B11, in the test with His-labeled human CD3E [4], the equilibrium dissociation constant (Kd) was 0.677 nM, the koff is 0.000201 s⁻¹ and the on-rate (kon) was 296000 M⁻¹ s⁻¹.

B12: humanized antibody AB626 (antibody, V domains shown)
VH: EVQLLESGGGLVQPGGSLKLSCAASGFTFNTYAMNWVRQAPGKGLEWVGRIRSKINNYATYYADSVKDRFTISRDDSKNTAYLQMNNLKTEDTAMYYCVRHDNFYGSTYSHFADWGQGTLVTVSS
VL: ELVVTQEPSLTVSPGGTVTLTCRSSTGVVTTSNYANWVQEKPDHLFTGLIGATNYRAPGTPARFSGSLLGGKAALTLSGVQPEDEAIYFCVLWYSNHWVFGGGTKLTVL
In the test with His-labeled human CD3E [4], B12 displayed a Kd of 182 nM, a koff of 0.00169 s⁻¹ and an on-rate constant (kon) of 9300 M⁻¹ s⁻¹.

B13: humanized antibody AB621 (antibody, V domains shown)
VH: EVQLLESGGGLVQPGGSLKLSCAASGFTFNTYAMNWVRQAPGKGLEWVGRIRSKINNYATYYADSVKDRFTISRDDSKNTAYLQMNNLKTEDTAMYYCVRHDNFYGSTYSWFADWGQGTLVTVSS
VL: ELVVTQEPSLTVSPGGTVTLTCRSSTGVVTTSNHANWVQEKPDHLFTGLIGATNYRAPGTPARFSGSLLGGKAALTLSGVQPEDEAIYFCVLWYSNHWVFGGGTKLTVL
With B13, in the test with His-labeled human CD3E [4], the Kd was 2.12 nM, the dissociation rate constant (koff) worked out at 0.000369 s⁻¹ and the kon amounted to 174000 M⁻¹ s⁻¹.

B14: humanized antibody AB617 (antibody, V domains shown)
VH: EVQLLESGGGLVQPGGSLKLSCAASGFTFNDYAMNWVRQAPGKGLEWVGRIRSKINNYATYYADSVKDRFTISRDDSKNTAYLQMNNLKTEDTAMYYCVRHDNFYGSTYSWFADWGQGTLVTVSS
VL: ELVVTQEPSLTVSPGGTVTLTCRSSTGVVTTSNYANWVQEKPDHLFTGLIGATNYRAPGTPARFSGSLLGGKAALTLSGVQPEDEAIYFCVLWYSNHWVFGGGTKLTVL
In the test with His-labeled human CD3E [4], B14 came in with a dissociation constant Kd of 2.77 nM, a koff of 0.000698 s⁻¹ and an on-rate (kon) of 252000 M⁻¹ s⁻¹.

B15: murine monoclonal antibody AP191 (antibody, mouse IgG1, V domains shown)
VH: QVQLQQSGPELVKPGASMKMSCKASGYTFTSYYIHWVKQRPGQGLEWIGWIYPGDGSTKFNEKFRGKTSLTADKSSNTAYMFLSSLTSEDSAIYFCARDGYSLYYFEFWGHGTTLTVSS
VL: DIVMSQSPSSLAVSAGETVTMSCKSSQSLLNSRTRKTYLAWYQQKPGQSPKLLIYWASTRDSGVPDRFTGSGSGTDFTLTISSVQAEDLAVYYCVQSYTLRTFGGGTKLEIK
In test [1], B15 gave an EC50 of 0.0149 nM. In test [2], this molecule registered an EC50 of 2.74 nM. In the test with His-labeled human CD3E [3], this molecule returned a Kd of 0.121 nM, a koff of 9.73e-05 s⁻¹ and a kon of 802000 M⁻¹ s⁻¹.
